According to the DeepSol protein solubility set:

Experiment: soluble on expression in E. coli; label from the status in PepcDB or PDB records

Sequence | soluble on expression in E. coli
MSENKNVQDTHISEQMKALHGALIRVVSALNRPRNDEKLIAEAGIQLDRALFSILISIERLGPIGVVELAERAGRDYTTVSRQVAKLEKLGLIIRQHNAIDRRIREAVISRTGKAMTERIDAAREQMGNVVFKDWPQDELDVFVRLMQKFADAMDSDASMPE | not soluble
MGSDKIHHHHHHMKTQYFSDVDETVITTTLSNGLRLQVVPRPAYHKSYAIMTTDYGSIDTQFAPDGKQMVTYPAGIAHFLEHKLFEKEDHDAFDLFGETGASANAFTSATKTSFLFSTTTQLTKNLQILLDFVQTPFFSKASVAKEQGIIGSEIQMYQDDPGWRGYAGLLENLFPNHPAHVDVAGTVASIAQITPEMLYTIHRVFYQPSNMTLIVVGNIDADAIMAFVAANQAAKQFPAPQAIVRGVHADLQTDDIVPYRQLEMPISRPKTLVGIKGQVAIPMTAEGWRYQLTIRLLLEVLFGDSSQLYQDWYDRGLIDDSFDFDFTNQRSFSYGLVGGDTDDPHALSDAIKHVLLNAATQPDLTRDRVALIKRASLGKYYAGLNGLNGVANQLSALSFGQASLFDFPEILSSITLADLQAMIDQVFQAKALTVLDMIPEAD | not soluble
MPMKDVLSRIGIGSATVDTVLPTDSVRAGESVRAEVHVEGGSTDQNIDSVYFALETEYKSDEGYKDAIIDQWQLTEPFTIEAGEKRRFETTIDIPRETPVTTRSTAVEIETGLDISMAVDPGDEDYIEVEPTHRTQAVFDALDSLGFSLHASACEAAAGSLFTTSANFAQEFEFRPQRGEFTGAVDEVEIVPVFDDDRLTVYLEVDRSAGLLSEVTDADERHTKLTIEAPDPDAIEPRLAEAIRELS | not soluble
MSLSKNWLFLGKGFRWRPSHTQKLHQIKQVKNEKFMQRSYCYQLTRRFCQSHEHTKLAKWLNINSKLNPFRPDPPVGGSPFLHGVGDEDKPVYIPQDVRVGHTFVVGTTRVGKTRLASILINQDIRNGDAVIVVDPKGDQDLVRDMVAACKVSGRTEDFKIVHLGFPEQSAQYNPLKKFDQISEVATRITDAISAEGEGKQFAAFAWKYVNIVAICLEEMNQPITYQTIAFYISRLEQLLMSYADNILPNHYLNYHQEIDDIIEEHDSKIGKNNKTKSPMERHQAVIQYIKDHINKTIKSNNAEALHDQILIDLYDAAIMDKHYYDKITASVGPVLSEINKSNASKILSSKAQPGDIELMDVIKNKKVLYIGLDSLTNPNIAQAVGKAFLSDLVSTAGKIYKEPNARYTLNLHCDELSEIIQDSFVKILNKAGGAGFQVTAYAQTIQDMEVALGSRAKAEVSEGNFNTLIMLRVKNEETANLLVKVLPQVGVVGHTQVSMVNDTPHGDDGVYFNTTNEDRVQTSNAPMIGVDDIISLPKGQAFVLASGGEIWKIRIPLPMNSNEGHHHHHH | not soluble
MGSDKIHHHHHHMKSWVENVTIKKYEDRSGLTGLKQGPLVWTEVFLREVNRQSNTGILHFWPMDQTVILGMMDSQVAQLDKGLASIGQAGYSPIIRSLGGLAVVADDGILNVTLIFPNPSGHKVDLRESYQVMVDLIAQALSDFPFEVVSGEVATSYCPGTYDLSIKGRKFAGLAQRIYQEAIAISAYISVSGNQVKRGQVVADFYAASFAPQEVSDRFPQVNPNSMANLSDLVAQDLTMEDMKIRIEHVLIENGAFLTTFYPSSDNMADFMALGKTIKQSMEKYGI | not soluble
MKKAIQFGAGNIGRGFIGGLLVKSGYHVVFADVNEYILNSINKDKKYTIHIRDVECIDEVIDNISAVSSIKEEIIDEIVQAEIITTAVGPLVLTKIASTIAKGIKARKEKGLTSNLNIIACENAIYASSSLKEEVLKYLNKEEVEYLEMYVGFPNCSVDRIVPPGKNENPLDVTVENFYEWNVEKQGFKGEIPTIVGMNLADNLMAYIERKLFTLNTGHAITAYIGYLKGYKTIEESIKDKFICDIVKSAMVESGEGLIKKYNFDSEVHYKYIDKILNRFKNPYLNDDVLRVGREPLRKLSDKDRLIKPLMTAKSYGLSVDNLILGIGAALHYNNSEDTQSVELQELIKSIGVKKAVAKIANISNDEELLNNIEKSYIFMKNL | not soluble
AKPVTSETMAAKTVGLQIYSLGKELYADVPGGLKKIKQMGYTNLELAGYKEGKIGGVDMMEFKKMVDDAGLKITSSHVNPPVREYTKANRSQISEYWKKTADDHAKLGVKYLIQPGQPSTRSTEETAFVCEIFNEAGKIVKAAGIPFGYHNHEMEFAKVNPGSTEAKLGRRVKGDCIYELFLKNTDPSLVFFEMDVYWAVMGQQDPIEWLKKYPNRIKVLHIKDRAILGESGMMNFENIFRQAYANGIKDYFVELEGMPDGRSQFEGVKGCVDYLLKAPFVK | soluble
MGRLDGKVIILTAAAQGIGQAAALAFAREGAKVIATDINESKLQELEKYPGIQTRVLDVTKKKQIDQFASEVERLDVLFNVAGFVHHGTVLDCEEKDWDFSMNLNVRSMYLMIKAFLPKMLAQKSGNIINMSSVASSVKGVVNRCVYSTTKAAVIGLTKSVAADFIQQGIRCNCVCPGTVDTPSLQERIQARGNPEEARNDFLKRQKTGRFATAEEIAMLCVYLASDESAYVTGNPVIIDGGWSL | not soluble
MSLTDAILYELHIRDATIHPGSGVSKKGTYKGLMEEGTTGRNGTLTGLSHIKDLGVTHVELLPLYCFGGVDEANPSSAYNWGYNPLYYNAPTGYYATNPSDPYNRIVECKQLIETFHEHGIRVIIDVVYNHVYERELSSFEKLVPGYYFRHGENGMPSNGTGVGNDIASERKMMRKFIVESILYWLTEYNVDGFRFDLMGILDVDTINIIEKEVRNIKRDALLLGEGWDLQTPLPLEEKATLNNAKKMPHIAQFNDQFRDGIKGSTFHINKRGFAFGGYVDCNHLQYIASGSLLSMKETGLFLEPVQSINYVECHDNMTMWDKLMRSNEESEEILKKRHLLATAMVILSQGIPFLHAGQEFYRTKQGNENSYNANDEINQLDWDRKEKEIETVNYIKGLIAIRKEHGAFRLQNADLIKKHMTFLQTSPEVLAYHLEHVESFGPWKEIVVLFNSSLEAKTVQLPKEETWHVLVNEKQAKIEPISSFRGKELRLAPISTYILTIMEGHHHHHH | not soluble
MDDQGCPRCKTTKYRNPSLKLMVNVCGHTLCESCVDLLFVRGAGNCPECGTPLRKSNFRVQLFEDPTVDKEVEIRKKVLKIYNKREEDFPSLREYNDFLEEVEEIVFNLTNNVDLDNTKKKMEIYQKENKDVIQKNKLKLTREQEELEEALEVERQENEQRRLFIQKEEQLQQILKRKNKQAFLDELESSDLPVALLLAQHKDRSTQLEMQLEKPKPVKPVTFSTGIKMGQHISLAPIHKLEEALYEYQPLQIETYGPHVPELEMLGRLGYLNHVRAASPQDLAGGYTSSLACHRALQDAFSGLFWQPS | soluble
MSLRYDRAGDQHYDVASALIKSMRGSDVDAALHYLARMVEAGEDPRFIARRIVIAAAEDVGMADPSALQTAVAAMHAVAQIGMPEARIVLAQAVVHNATAPKSNAAYAGINAAIADVRAGLGGSVPAHLRDAHYAGAGKLGHGKGYVYTHDVPAGVAEQQYAPDELVGKDYYVPTDRGFENQLRERLARLRRVLRGREGHHHHHH | soluble
MANSSPCMKAVRVPKSEAEQVRRLAEKLGVKDKSRRITATGDYVEIPIIDSAESFFKGYTIVEQDNPVFSRKRSLREILRGKVPEELIPTNYKVIGDIVVVKLDERAREYAKVIGEALMQINPCKAVWCDYGRYGMKRKPRMELIAGEGSVTEHRENGCRFRIDVAKVMFSLGNQAERMRIARLVEDGEVVVDMFAGIGYFSIPIAVHSKARRIYSIEINPESYKLLLENIKLNDVGNIVPILGDSQFVTPEGVADRVVMGHIYCHDYLHTAIRALKERGVVHYHEATPEAVIDRPVRRVEKACRKMGKKCRILGFKKVKNYSPGVYHVVVDAEVY | not soluble
DLRFFGDFVLEGDARLGEVAALYGLKLDGIDPGMPLSQFIVQKNRGEPVVGDQIEWNGTIWTVAVMDGNKIQKVGVKFPEGTRPGPGLFL | not soluble
MRCPGCGAAIQFDDPKKPGYIPREVFEKRLEEGKEILCQRCFRMKHYGKLEPVEFDWDFKNQLKSYLGGFDVVVWVIDIFDFEGTYREDIAEILKGKRVIYVINKIDLLPRAVTVKEIKEWVKKRIKTKNTDDIRIVSAEKNFGLTSLVKYLSRLTDKALVVGVTNVGKSSLLNKICTHENTISPFPGTTLGILKRKVKEANLYLYDTPGIMTSDRILDLLDPECQKRVLPREELSRKTFKPDNGRTIFMGGLCRFDIHFETEKNPIFLLFSSKEVTFHETRRERADELMRNRLGDLLIPPCSKTKFENFKWKRETFTLKEGEELAVAGLGWMSVRRGPFTVEVTVPDSVKLVVREALVNPKRLEHHHHHH | soluble
MAGDPMTKQEKIQKTITFVKHILEKDASGHDWYHIERVHKMAISLSEQEGGNRFIIEMAALLHDVADEKLNESEEAGMKKVSDWLEELRVEEEESKHILHIIANMSYKGGHGGTVESLEGKIVQDADRLDALGAIGIARTFAYGGAKGRLMYDPTIPPREEMTKEEYRKNNDPSLNHFYEKLLKLKDLMNTNAAKQEAEIRHLYMEQFIEQFMKEWNAQILEHHHHHH | soluble
MGSDKIHHHHHHMTSREQIIELIKSGEFTQAELARQMGVNSGALSSYLGGKYKGNVENIENVLASWLSTRDKKEKVFVEAPHFIEIPTADKVFKALDMARFCKTIVPIFGASGVGKTKACQEYKKRYQNVWMITISPSRASLNAFLYELALELGIKDAPRRKDRLSRLILDNLKDTEGLVIVDESDHLTYDSIEELRYLQEKAEVGFALIGNNKVYTKMQGGANQAHEYARLWNRIGKKCQIKASKKGDIKAVAQAWGLDVQDKDLMTVLYDIGGKAGGLRALTQYLRLAGMTAKGQGTGITLDLILTAQAEMTGSE | not soluble
MSLTMNSEDKFKILQIADLHFSTGYGKCLDPQPPSSAKGCKADSRTLEFINKVLDLEKPDMVVLTGDQIFGDASPDLESSAFKALNPFVERKIPFAITVGNHDDEGSLKREEIMGLYADMPYSVAAMGPASIDGFGNYVVTVQGKSSKATALSLYFVDSHAYSKTPKVTPGYDWIKENQLIYLKQEAESIQNSVEKYRKSNKIPLAMAFFHIPLPEFRNLNQPFIGENREGVTAPRYNSGARQVLSEIGVSVASVGHDHCNDYCLQDTQQSLSPGDNKMWLCFGGGAGLGGYGGYNGYIRRMRVYELDTSKGEIKTWKRTEDNPGNIIDEQVLVSNGDVVNEGHHHHHH | soluble
MTKTAFLFAGQGAQYLGMGRDFYDQYPIVKETIDRASQVLGYDLRYLIDTEEDKLNQTRYTQPAILATSVAIYRLLQEKGYQPDMVAGLSLGEYSALVASGALDFEDAVALVAKRGAYMEEAAPADSGKMVAVLNTPVEVIEEACQKASELGVVTPANYNTPAQIVIAGEVVAVDRAVELLQEAGAKRLIPLKVSGPFHTSLLEPASQKLAETLAQVSFSDFTCPLVGNTEAAVMQKEDIAQLLTRQVKEPVRFYESIGVMQEAGISNFIEIGPGKVLSGFVKKIDQTAHLAHVEDQASLVALLEKL | soluble
MSLKTIAIDFETANEERGSACSVGLAWIEDGQIVRVEERLIRPRDMRFSPFNIAVHGIRPRDVEDAPEFPEVMEEFIDDFHGATMIAHNAAFDFSVMRASFDKYRLSYPDLSYLCSVKIARHVWPHLVSHKLNVIAHHLQLRFVHHNAAEDAVVCAAASIAAARALGVAHIRDLPEKIGEGHHHHHH | not soluble
MGSDKIHHHHHHMSDSFDVLWLNASPILKRFDKPLLDYLSGYMRIAQWEYQQTKDEASSIDQAVELLHNFLEWRDRPVHLAGHGMSGAIALTFARRFPQKVRSLTLLSVAAQPANNWQAHYYFQRQLFSISRELVLASTVRSLFGNQPPHTTKKLVAALDKDLEQSPSQHSLFKLVYLPKGGVSMPMMVCGSKSDPVVNPTVLHDWLNWLKPEDKLWECPQGYHFFHYFYPQQVGEEILSFWKRHPSHLLEASALSFSTSTN | not soluble
MCIAIPGKMTAIVDENTATIDMGGICRDVNMALMGGAEESMIGKHFLVHVGYAISEISEEESEETMRLLKIMAGLEEIDSFENESQ | not soluble
